Consider four substances from patent publication US20190071477A1.

In experiment [1] the target is C3b (UniProt P01024). Put plainly: cell-based or functional assay.
The target in experiment [2] is C3b (UniProt P01024). Description: ELISA on plates coated with C3b (5 ug/mL), detection with mouse anti-human CFH antibody and HRP goat anti-mouse, OD450. For orientation: An ELISA detects its analyte on a solid surface through an enzyme-linked reagent.

hSCR (1-7)-mFc fusion protein, sequence (chain): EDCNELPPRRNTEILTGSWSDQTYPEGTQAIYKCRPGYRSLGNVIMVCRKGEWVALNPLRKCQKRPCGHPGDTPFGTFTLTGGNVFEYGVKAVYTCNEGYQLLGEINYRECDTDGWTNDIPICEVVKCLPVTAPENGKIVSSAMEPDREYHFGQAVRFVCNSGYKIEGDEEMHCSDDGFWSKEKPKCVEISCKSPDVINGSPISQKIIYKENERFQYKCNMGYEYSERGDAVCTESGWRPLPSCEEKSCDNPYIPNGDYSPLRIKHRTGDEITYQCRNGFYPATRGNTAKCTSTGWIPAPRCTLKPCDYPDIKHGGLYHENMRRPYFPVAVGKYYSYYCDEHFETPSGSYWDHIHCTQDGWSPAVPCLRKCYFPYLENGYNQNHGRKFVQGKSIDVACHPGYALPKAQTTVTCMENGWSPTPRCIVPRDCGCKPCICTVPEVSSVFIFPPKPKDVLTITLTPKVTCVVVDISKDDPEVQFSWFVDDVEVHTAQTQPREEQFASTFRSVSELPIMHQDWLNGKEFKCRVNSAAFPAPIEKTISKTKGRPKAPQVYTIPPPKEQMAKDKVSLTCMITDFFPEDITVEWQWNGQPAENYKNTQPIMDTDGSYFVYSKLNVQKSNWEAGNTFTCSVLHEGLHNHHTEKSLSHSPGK
hSCR (1-7)-hSCR (18-20)-hFc fusion protein, sequence (P08603 other isoform, or with tags, fused parts or gaps limits assumed): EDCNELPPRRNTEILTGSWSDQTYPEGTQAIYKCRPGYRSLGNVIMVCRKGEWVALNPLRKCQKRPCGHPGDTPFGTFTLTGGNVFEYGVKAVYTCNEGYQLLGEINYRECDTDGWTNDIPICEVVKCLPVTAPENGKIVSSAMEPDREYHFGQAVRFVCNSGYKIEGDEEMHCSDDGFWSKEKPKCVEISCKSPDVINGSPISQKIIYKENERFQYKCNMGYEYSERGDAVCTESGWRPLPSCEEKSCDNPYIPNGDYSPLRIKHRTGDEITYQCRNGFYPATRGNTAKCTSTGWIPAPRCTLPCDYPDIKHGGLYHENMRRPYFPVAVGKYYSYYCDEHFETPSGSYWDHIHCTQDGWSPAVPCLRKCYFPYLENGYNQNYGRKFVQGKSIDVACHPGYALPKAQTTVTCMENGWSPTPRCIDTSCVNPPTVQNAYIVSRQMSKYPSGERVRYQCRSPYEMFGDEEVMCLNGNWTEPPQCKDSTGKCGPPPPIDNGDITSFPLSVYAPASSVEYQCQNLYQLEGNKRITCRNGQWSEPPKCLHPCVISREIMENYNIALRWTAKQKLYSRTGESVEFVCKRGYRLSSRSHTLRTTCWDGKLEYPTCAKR
human CFH (complement Factor H), sequence (P08603 19-1231 limits assumed): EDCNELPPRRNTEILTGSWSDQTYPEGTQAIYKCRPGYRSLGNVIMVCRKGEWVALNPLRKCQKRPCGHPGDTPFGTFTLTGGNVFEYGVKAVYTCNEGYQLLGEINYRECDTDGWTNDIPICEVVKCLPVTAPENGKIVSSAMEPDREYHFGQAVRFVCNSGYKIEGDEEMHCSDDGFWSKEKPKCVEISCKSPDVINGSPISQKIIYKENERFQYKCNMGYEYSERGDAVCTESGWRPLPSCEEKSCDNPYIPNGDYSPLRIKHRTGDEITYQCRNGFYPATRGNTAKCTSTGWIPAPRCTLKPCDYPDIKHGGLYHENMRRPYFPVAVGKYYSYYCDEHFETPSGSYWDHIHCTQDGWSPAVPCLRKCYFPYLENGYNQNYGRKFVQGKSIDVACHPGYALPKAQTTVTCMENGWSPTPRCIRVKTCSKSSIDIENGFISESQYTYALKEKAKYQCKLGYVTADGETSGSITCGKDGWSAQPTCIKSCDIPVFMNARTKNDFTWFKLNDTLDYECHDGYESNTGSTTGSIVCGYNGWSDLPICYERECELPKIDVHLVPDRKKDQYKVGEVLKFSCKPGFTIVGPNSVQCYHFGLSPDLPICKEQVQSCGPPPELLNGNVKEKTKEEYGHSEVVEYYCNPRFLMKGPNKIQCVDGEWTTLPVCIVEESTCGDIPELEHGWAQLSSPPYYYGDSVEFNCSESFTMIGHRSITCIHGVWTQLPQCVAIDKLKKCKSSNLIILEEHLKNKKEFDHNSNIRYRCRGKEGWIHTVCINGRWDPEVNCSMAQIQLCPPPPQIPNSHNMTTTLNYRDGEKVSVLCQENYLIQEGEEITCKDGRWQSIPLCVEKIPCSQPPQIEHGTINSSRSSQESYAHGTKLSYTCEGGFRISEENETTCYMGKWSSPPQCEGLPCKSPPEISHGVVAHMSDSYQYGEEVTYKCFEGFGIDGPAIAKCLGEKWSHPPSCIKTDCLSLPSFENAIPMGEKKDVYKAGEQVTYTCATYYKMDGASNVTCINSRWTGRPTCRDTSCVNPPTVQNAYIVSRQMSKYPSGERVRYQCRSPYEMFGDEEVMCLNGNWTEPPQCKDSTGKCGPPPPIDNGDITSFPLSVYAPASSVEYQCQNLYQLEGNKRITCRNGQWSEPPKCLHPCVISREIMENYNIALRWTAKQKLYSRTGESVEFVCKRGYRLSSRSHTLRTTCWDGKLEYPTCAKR

Broadly, the EC50 (read off the curve) is the concentration giving half of the maximal effect. Low readings indicate a more potent agent, high ones a less potent agent. In experiment [1], hSCR (1-7)-hFc fusion protein showed an IC50, inhibition of rabbit red blood cell hemolysis mediated by the alternative complement pathway of 0.074 µM and a hemolysis inhibiting activity relative to human CFH of 5 times. In addition, the 50% effective concentration (EC50 (read off the curve)) in experiment [2] is 0.03 µM.

“hSCR (1-7)-hSCR (18-20)-hFc fusion protein (from UniProt P08603 19-1231)” registered an IC50, inhibition of rabbit red blood cell hemolysis mediated by the alternative complement pathway in experiment [1] of 0.33 µM.

On to hSCR (1-7)-mFc fusion protein, for which the IC50, inhibition of rabbit red blood cell hemolysis mediated by the alternative complement pathway in experiment [1] was 0.086 µM. The concentration giving a half-maximal response (EC50 (read off the curve)) in experiment [2] was found to be 0.03 µM.

“human CFH (complement Factor H) (from UniProt P08603 19-1231)” had an IC50, inhibition of rabbit red blood cell hemolysis mediated by the alternative complement pathway in experiment [1] of 0.37 µM.
